Results taken from US20190203192A1.

Molecular target: VEGF (UniProt P15692)
Experiment: SPR (BIAcore)
Settings: Fab

VEGF, sequence (P15692 other isoform, or with tags, fused parts or gaps): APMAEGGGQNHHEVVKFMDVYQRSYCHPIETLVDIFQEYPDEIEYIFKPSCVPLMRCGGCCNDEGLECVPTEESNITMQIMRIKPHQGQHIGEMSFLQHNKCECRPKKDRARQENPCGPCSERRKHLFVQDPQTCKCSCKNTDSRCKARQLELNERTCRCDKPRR

anti-VEGF Fab (Lucentics) control
Kd: 0.103 nM
